Measurements from the DeepSol protein solubility set.

Experiment: soluble on expression in E. coli; label from the status in PepcDB or PDB records

| Sequence | soluble on expression in E. coli |
| --- | --- |
| MAHHHHHHMVLLSVKGTTFPDEFVYECTAATAIYPDLARNLCHIQNSRHLVKLILLSARELLDEARCKKRVEVVDEGPGDGGANSYSALLTEYGAIIESTSARLKDRVVPVSLEEFDQYADRLRELTERLYPEECCVPEGGRSAAVDRLYQLHDDPNLDEDRRLAVYHCRAILDPQWKSHEQQKEDKAGLWFCGKLMEDTIARYSGKNEKSRLTVKVHPKDSVPPSTEPRISYDDQRALYERMRTRREEYKGLEESELRDRVVAQARGKVALTAPAAASPAMSMDLSRLRPICPKREEHEVN | not soluble |
| MAHHHHHHMVNLRLQVAVVGAPTVGKTAFVQMLHSNGTTFPKNYLMTLGCDFIVKEVPVDDDNTVEMIIFDVSGQREYEPMVSSYLQNTAVFIVMYDVSNKVTFEACARWVNQVRTNSKESVGILIANKSDLSDKAEVTDRQGKDLANANKMKFYKISTLRGVGITEPIDEIARHYVDAYQKRIEQLTQMR | not soluble |
| MAHHHHHHMWNLNRLYRQNELSMHGVRNNHDIIVVRQVNISDKNNPDNYLHNQNNTNTSIKQNPQSVILNEKELLNLVQNFNHINRKHKGFCETSIFKNSTFSNTNNEHNGEDSFNTYLIIDKWKTKREFEKSKKEFEKLFAHKNHLYDKKMEDIYLNYEMYNNNYETVSAQNIFQKLYYFIFD | not soluble |
| MAHHHHHHMWRQLMCSYSSKEKLGSKIYTQKKITKREKLLGIVKPFVDENCDSAEPYVIAYYLNNPINLATLKSAYEKVGSQVLYKDPYLYVESCSHFNQQNSSAVFFKNGCMVIWSMNKQNRNKFFHFSKQFLHINSESTIDHYDFEELQVENISNKSYVNNSVIYLTSSNYRTTDKIAISFGLLSAVRLNNLEKKIEKKLFYENDQIENLKKKMKSSNLDHLSKQLFTSKITLHNLRYELNIDQDILDVPEALWELEYQKKLFLNILHIFDIKQRVDLLNHRLSWTLDYLNSFLDYVNQKHSSRLERIIIVIVGLELVLGIMQMGNTIGL | not soluble |
| MAHHHHHHMYLYHSNKCAIKKGIPFFRNVASICFLRKAQNGEEVKRRKVFCSAKFISTISEGRETGCGQANTDQPSTPLGSYTEKSSYKDIKIVENEKEGNDAAEEINQNDIIAVDFEGTNLGKYGKVCIMQVYTEERTREGTPPQSECISREKYYIFDLLKMSVIKSVKKIIENKKTLKLVHDCREDSSALYNQLGIKFENVYDTSRAHMLLMEKNKSNDIYQVSFLQLLNDYLGIKDECLSSIKKEMYKNEKIWQVRPLSKMSIIYALKNVKYLFPLYRIFDNMLPKKIVLEKSKDFVNYCLINSRYKLPVDLAKRGNIVQAMLVSKSMLNCVFKLNSTRKGIACTPSSVAQFRDVKVGDVVLCVVSNKSIDQKILYLCKHDDVFDYWNLKERPRGKFKPSIHESATDPMIQFCDEEQPA | not soluble |
| MAHHHHHHSLNVLKDKLSGKNVKIVLPEGEDERVLTAATQLQATDYVTPIVLGDETKVQSLAQKLDLDISNIELINPATSELKAELVQSFVERRKGKATEEQAQELLNNVNYFGTMLVYAGKADGLVSGAAHSTGDTVRPALQIIKTKPGVSRTSGIFFMIKGDEQYIFGDCAINPELDSQGLAEIAVESAKSALSFGMDPKVAMLSFSTKGSAKSDDVTKVQEAVKLAQQKAEEEKLEAIIDGEFQFDAAIVPGVAEKKAPGAKLQGDANVFVFPSLEAGNIGYKIAQRLGGYDAVGPVLQGLNSPVNDLSRGCSIEDVYNLSIITAAQALQEG | soluble |
| MAHHHHHHSLRLTPLPQPKRIHYMVKVGDTLSGIFAQLGVPYSILQKILSVDLDHLQLDMIQPGEELELMMDDMGQLSRLIYHMSIVEKAIYTRENDGSFSYDFQEISGEWREILFSGEINGSFSVSARRVGLTSSQVANITQVMKDKIDFSRSLRAGDRFDILVKQQYLGEHNTGNSEIKAISFKLAKGDVSAFLAEDGRFYDRAGNSLERAFNRYPVDKAYRQITSGFNPKRKHPVTGRVVPHNGTDFATPIGAPVYSTGDGKVIVVRKHPYAGNYLVIEHNSVYKTRYLHLDKILVKKGQLVKRGQKIALAGATGRLTGPHLHFEVLVRNRPVDAMKADLPIAKSLSSNQKTSFLARVSEFDHLVQANQQEVALDEG | soluble |
| MAHHHHHHSLTTSHILGFPRVGAKRELKFAQERYWRKELAEQDLLDLAKALREKNWKHQAAANADFVAVGDFTFYDHILDLQVATGAIPARFGFDSQNLTLDQYFQLARGNKDQFAIEMTKWFDTNYHYLVPEFQKSTAFKANPAHYVNQIREAKALGLNFKPVIVGPLTFLWLGKEKGEAFNRFDLLNQLVPVYVEILNALVAEGAEWIQIDEPALALDLPAEWVEAYKSVYTELSKVNAKLLLATYFGSVAEHAELLKALPVAGLHLDLVRAPEQLAAFEDYSKVLSAGVIEGRNIWRANLNKVLDVLEPLKAKLGERLWIAPSCSLLHTPFDLEVEVQLKEKNTALYSWLSFTLQKVEELNVLKQALNNGRASVQAALDASQVAADARATSKEIHRPEVAERLANLPKGADQRKSPFAERIVKQNAWLNLPLLPTTNIGSFPQTTEIRHARASFKKGELSLADYEAAMKKEIEYVVRRQEELDLDVLVHGEAERNDMVEYFGELLDGFAFTKFGWVQSYGSRCVKPPVIYGDVTRPEPMTVRWSQYAQSLTNRVMKGMLTGPVTILQWSFVRNDIPRSTVCKQIGVALSDEVLDLEAAGIKVIQIDEPAIREGLPLKRADWDAYLQWAGEAFRLSSMGVQDDTQIHTHMCYSEFNDILPAIAALDADVITIETSRSDMELLTAFADFKYPNDIGPGVYDIHSPRVPTATEVEHLLRKALNVIPKERLWVNPDCGLKTRGWTETIDQLKVMVDVTKKLRAELAEG | soluble |
| MAHVAEWKKKEVEELAKLIKSYPVIALVDVSSMPAYPLSQMRRLIRENGGLLRVSRNTLIELAIKKAAKELGKPELEKLVEYIDRGAGILVTNMNPFKLYKFLQQNRQPAPAKPGAVVPKDVVVPAGPTPLAPGPIVGQMQALGIPARIEKGKVTIQKDTTVLKAGEVITPELANILNALGIQPLEVGLDVLAVYEDGIVYTPDVLAIDEQEYIDMLQKAYMHAFNLAVNIAYPTPETIEAIIQKAFLNAKTVAIEAGYITKETIQDIIGRAFRAMLLLAQQLP | soluble |
| MAIISSLANHLLIAMPSLKDPNFERSVVYLCEHNEQGSVGLIINRPLQFPLSIVFEQLQIEPIRVEKNGLPLLFGGPVQPERGFVIHKQMGGWRSSLFLQDEVTVTTSNDIIRAIAYDEGPKDVLITLGYAAWTEQQLEREIMSNTWLVCPYKSEILYEVPFEERWEYAGLTLGIKMNQLSSDAGHALEHHHHHH | not soluble |
| MAIKLKSPWEIERMREAGALLTEVVEEVARHVEPGVSTWELDQIAYEAIRKRKAKPAFLGLYGFPATLCTSVNEVVVHGIPSKEPLKEGDILSVDVGLIYQGFAADMARTFPVGRVSPEAERLIRDTEAAFWEGMKYLRPGFRLGDVGHAIQTFLESRGYGVVREFVGHGVGREIHEDPQVPNFGKPGTGPKIRPGMTLALEPMVTLRPAPVVILDDGWAASAGRGNLAAHYENTVLVTEEGPELLTGVALARAE | soluble |
| MAILLNRPTLSRLPWFPLRPEDFTTLLQTADFRLRLLEAIAAATRRVYICALYLENEEAGQEMLDALYRAKQRNPQLDVRVMVDWHRAQRGRIGEDQSHCNASWYREEAARRELDIPIYGVPVQTRELFGVLHLKGFVIDDTVFYSGASLNNVYLHKLDKYRFDRYHLIRSPELADAMAGFMAEQFFNDPAVFRLDKPTPSTRSIRKEIRQLRDKLSHSQYRPGSAHAAPDELAISPIVGIGKGNRLNRAILDVIAGAQRRLFICTPYFNFPRAVVLEINRALRRGVEIDIVVGDKTANDFYIPPEQPFRVIGALPYLYEMNLRRFAKRQRQYLSREQLRVRLWKDGDNTYHLKGIWSDDRFILLTGNNLNPRAFRLDLENALLLRDPQGALRGQSAAEQQSILRHTTQLSHYRQLEDVRAYPEQIKKLLTRLSRVRIDRMLNLMLLEHHHHHH | soluble |
| MAINLELPRKLQAIIVKTHQGAAEMMRPIARKYDLKEHAYPVELDTLINLFEGAAESFNFAGAHSLRDEDEGKDENHNGANMAAVVQTMEASWGDVAMMLSLPYQGLGNAAISAVATDEQLERLGKVWAAMAITEPEFGSDSAAVSTTATLDGDEYVINGEKIFVTAGSRATHIVVWATLDKSLGRPAIKSFIVPREHPGVTVERLEHKLGIKGSDTAVIRFDNARIPKGNLLGNPEIEVGKGFAGVMETFDNTRPIVAAMAVGIGRAALEEIRSVLTGAGVEISYDKPSHTQSAAAAEFLRMEADWEASYLLSLRAAWQADNNIPNSKEASMSKAKAGRMASDVTCKTVELAGTTGYSEQSLLEKWARDSKILDIFEGTQQIQQLVVARRLLGLSSSELK | not soluble |
| MAIPKLQAYALPESHDIPQNKVDWAFEPQRAALLIHDMQDYFVSFWGENCPMMEQVIANIAALRDYCKQHNIPVYYTAQPKEQSDEDRALLNDMWGPGLTRSPEQQKVVDRLTPDADDTVLVKWRYSAFHRSPLEQMLKESGRNQLIITGVYAHIGCMTTATDAFMRDIKPFMVADALADFSRDEHLMSLKYVAGRSGRVVMTEELLPAPIPASKAALREVILPLLDESDEPFDDDNLIDYGLDSVRMMALAARWRKVHGDIDFVMLAKNPTIDAWWKLLSREVK | not soluble |
| MAISDWPEAERPREKLIEKGAAALSDAELLAIFLRTGITGVSAVELARKLLTHFGSLTKLCAASLHEFSELPGMGPAKFAQLQAVMEMAKRALAEELKNGDIMDSPQSVRNYLCLSLKGKPYEVFVGIFLDARHRTIVTEELFNGTLTQASVYPREVVKRALYHNAAAMIFAHNHPSGIAEPSTADEILTQSLKQALALVDVKVLDHFVIGSSEVVSFAERGLI | not soluble |
| MAITAQMVKELREKTGAGMMDCKKALTETNGDMEKAIDFLREKGIAKAAKKADRIAAEGLTFIETNGNDGLILELNSETDFVAKNEGFQTLIKELAAHLLANKPANVEEAMAQTMENGKKVEEHINEAIAKIGEKLTLRRFEIVSKTDADAFGAYLHMGGRIGVLTVLEGSTDEAAAKDVAMHIAAVNPKYIDRDAVTAEEVEHERQVLTQQALNEGKPEKIVAKMVEGRLGKFFEEICLLDQAFVKNPDMKVRQFVESKGGTLKGFVRYAVGEGIEKREDNFAEEVMNQVKGSN | not soluble |
| MAITIQNHELQVTLKALGATMTSITDSQGVEYLWQGDATYWGGQAPILFPICGSVRNDCVIYRPAQAPHFTGIIPRHGFVRHKTFDYDYISDSSVRFTIKSSKEMLINYPYRFSLEITYTLRNKSIAITYIVKNLESEKNMPYAIGAHPGFNCPLFEKEVFSDYYLEFEQFETCTIPESFPDTGLLDLQARHPFLENQKQLSLNHALFEKDAITLDQLRSKTVYLKSRNHAKGIQLDFDDFENLILWTSNNGGPFLALEPWSSLSTSIEESDILEDKQNIVRLNPKQSKQHSIRITILLEHHHHHH | soluble |
| MAIVSFKHKGLKLFYTTGSTKAIRPDHVKKLRVILTALTSATCPEMLKAPAFKMHPLKGELTGYYSIWVNGNWRVTFRFIGTDVELVDYQDYH | not soluble |
| MAKAQLSQNGEARAWQRMLSGRRLDLLNPSPFDIEIEDIAHGLARVARWNGQTQGEYAYSVAQHSLLVEQIFQKLFPQSQNNECLCALLHDAPEYVIGDIISPFKAVIGKQYELIEKRIQDAIHMRFSLPVAPSQKLLKKIKQADRIAAFHESIILAGFNTEEALRYFGHPNNISPEGLNLQPCSTTKIENAFLKRFHDLDVERLH | not soluble |
